# Patent publication US20200087373A1 (UNIVERSITY OF COPENHAGEN, published 2020)
# Ends that are not written are not given here. * marks the point of attachment. C16 diacid = O=C(O)CCCCCCCCCCCCCCC(=O)*; Stearoyl = CCCCCCCCCCCCCCCCCC(=O)*; Palmitoyl = CCCCCCCCCCCCCCCC(=O)*; Myristoyl = CCCCCCCCCCCCCC(=O)*; Lauroyl = CCCCCCCCCCCC(=O)*
# T1: human GIP receptor (human, UniProt P48546 22-466)
# T1 construct: whole, on cells; Transiently transfected COS-7 cells expressing the human GIP receptor; also called hGIPR
# T1 sequence (looked up): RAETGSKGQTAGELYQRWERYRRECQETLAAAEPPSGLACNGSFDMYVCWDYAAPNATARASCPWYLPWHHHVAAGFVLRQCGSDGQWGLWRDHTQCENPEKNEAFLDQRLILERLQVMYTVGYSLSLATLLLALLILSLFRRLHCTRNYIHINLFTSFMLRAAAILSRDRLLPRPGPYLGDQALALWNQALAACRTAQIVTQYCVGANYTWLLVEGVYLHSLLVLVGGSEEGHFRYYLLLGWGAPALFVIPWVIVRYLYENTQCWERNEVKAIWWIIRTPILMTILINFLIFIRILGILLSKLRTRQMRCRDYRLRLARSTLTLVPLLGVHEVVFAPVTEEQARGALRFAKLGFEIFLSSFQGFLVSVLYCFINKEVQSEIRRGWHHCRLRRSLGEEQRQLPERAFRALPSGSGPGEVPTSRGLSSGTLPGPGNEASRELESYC
# How the values were obtained:
# [1] = target: T1, human GIP receptor; assay: 125I-hGIP(1-42) competition binding, COS-7 cells expressing human GIPR
# Procedure: (§1) After incubation, the cells were washed twice in ice-cold binding buffer (+/−2% HSA) and lysed using 200 mM NaOH with 1% SDS for 30 min. Nonspecific binding was determined as the binding of radioactive ligand to untransfected cells.
# [2] = target: T1, human GIP receptor; assay: 125I-hGIP competition binding on hGIPR COS-7 cells; fold in affinity, paired, reference taken as GIP(3-30)NH2
# Procedure: as §1
# [3] = target: T1, human GIP receptor; assay: cell-based or functional assay
# [4] = target: T1, human GIP receptor; assay: 125I-hGIP(1-42) competition binding, COS-7 cells expressing human GIPR, with 2% HSA;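 also: nonspecific signal taken as radioligand bound to untransfected cells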
# Procedure: as §1
# [5] = target: T1, human GIP receptor; assay: 125I-hGIP(1-42) competition binding, COS-7 cells expressing human GIPR, without HSA;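 also: nonspecific binding defined as radioligand bound to cells lacking the transfected receptor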
# Procedure: as §1
# [6] = target: T1, human GIP receptor; assay: cell-based or functional assay; remark: listed apart in the source
# [7] = target: T1, human GIP receptor; assay: ratio of Ki with 2% HSA to Ki without HSA, 125I-hGIP competition binding on hGIPR COS-7 cells;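 also: nonspecific binding was defined as radioligand signal on cells lacking the receptor transfection, with cell lysates measured after washes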
# Procedure: as §1
Binder,IC50 [1] [µM],fold (paired) [2] [fold],cAMP - antagonisme IC50 [3] [µM],cAMP - antagonisme fold (paired) [3] [fold],Ki [4] [µM],Ki [5] [µM],cAMP accumulation Fold (fold change from GIP(5-30)NH2) [6] [fold],cAMP accumulation IC50 [6] [µM],cAMP accumulation logIC50 [6],Fold (Ki + HSA / Ki - HSA) [7] [fold]
EGTFISDYSIAMDK(Palmitoyl)IHQQDFVNWLLAQK-NH2 [AT105 [hGIP(3-30)NH2-C16/16]],0.522,34,0.0238,3.4,–,–,–,–,–,–
Myristoyl-EGTFISDYSIAMDKIHQQDFVNWLLAQK-NH2 [AT110 [hGIP(3-30)NH2-C14/3]],0.055,5.2,–,–,–,–,–,–,–,–
Lauroyl-EGTFISDYSIAMDKIHQQDFVNWLLAQK-NH2 [AT101 [hGIP(3-30)NH2-C12/3]],0.0099,0.7,–,–,–,–,–,–,–,–
EGWFISDYSIAMEK(Palmitoyl)IAQQDFVNWLLAQK-NH2 (N-terminus assumed; SMILES CCCCCCCCCCCCCCCC(=O)NCCCC[C@H](NC(=O)[C@H](CCC(=O)O)NC(=O)[C@H](CCSC)NC(=O)[C@H](C)NC(=O)[C@@H](NC(=O)[C@H](CO)NC(=O)[C@H](Cc1ccc(O)cc1)NC(=O)[C@H](CC(=O)O)NC(=O)[C@H](CO)NC(=O)[C@@H](NC(=O)[C@H](Cc1ccccc1)NC(=O)[C@H](Cc1c[nH]c2ccccc12)NC(=O)CNC(=O)[C@@H](N)CCC(=O)O)[C@@H](C)CC)[C@@H](C)CC)C(=O)N[C@H](C(=O)N[C@@H](C)C(=O)N[C@@H](CCC(N)=O)C(=O)N[C@@H](CCC(N)=O)C(=O)N[C@@H](CC(=O)O)C(=O)N[C@@H](Cc1ccccc1)C(=O)N[C@H](C(=O)N[C@@H](CC(N)=O)C(=O)N[C@@H](Cc1c[nH]c2ccccc12)C(=O)N[C@@H](CC(C)C)C(=O)N[C@@H](CC(C)C)C(=O)N[C@@H](C)C(=O)N[C@@H](CCC(N)=O)C(=O)N[C@@H](CCCCN)C(N)=O)C(C)C)[C@@H](C)CC) [AT107 [hGIP(3-30)NH2[T5W; D15E; H18A]-C16/16]],5.22,186,0.0769,3.1,–,–,–,–,–,–
TFISDYSIAMDKIHQQDFVNWLK(C16 diacid)AQK-NH2 (N-terminus assumed; SMILES CC[C@H](C)[C@H](NC(=O)[C@H](CO)NC(=O)[C@H](Cc1ccc(O)cc1)NC(=O)[C@H](CC(=O)O)NC(=O)[C@H](CO)NC(=O)[C@@H](NC(=O)[C@H](Cc1ccccc1)NC(=O)[C@@H](N)[C@@H](C)O)[C@@H](C)CC)C(=O)N[C@@H](C)C(=O)N[C@@H](CCSC)C(=O)N[C@@H](CC(=O)O)C(=O)N[C@@H](CCCCN)C(=O)N[C@H](C(=O)N[C@@H](Cc1c[nH]cn1)C(=O)N[C@@H](CCC(N)=O)C(=O)N[C@@H](CCC(N)=O)C(=O)N[C@@H](CC(=O)O)C(=O)N[C@@H](Cc1ccccc1)C(=O)N[C@H](C(=O)N[C@@H](CC(N)=O)C(=O)N[C@@H](Cc1c[nH]c2ccccc12)C(=O)N[C@@H](CC(C)C)C(=O)N[C@@H](CCCCNC(=O)CCCCCCCCCCCCCCC(=O)O)C(=O)N[C@@H](C)C(=O)N[C@@H](CCC(N)=O)C(=O)N[C@@H](CCCCN)C(N)=O)C(C)C)[C@@H](C)CC) [AT187 [hGIP(5-30)NH2[L27K]-C16diacid/27]],–,–,–,–,3300,182,67.6,1.86,-5.73 log(M),18.2
TFISDYSIAMDKIHQQDFVNWLLK(C16 diacid)QK-NH2 (N-terminus assumed; SMILES CC[C@H](C)[C@H](NC(=O)[C@H](CO)NC(=O)[C@H](Cc1ccc(O)cc1)NC(=O)[C@H](CC(=O)O)NC(=O)[C@H](CO)NC(=O)[C@@H](NC(=O)[C@H](Cc1ccccc1)NC(=O)[C@@H](N)[C@@H](C)O)[C@@H](C)CC)C(=O)N[C@@H](C)C(=O)N[C@@H](CCSC)C(=O)N[C@@H](CC(=O)O)C(=O)N[C@@H](CCCCN)C(=O)N[C@H](C(=O)N[C@@H](Cc1c[nH]cn1)C(=O)N[C@@H](CCC(N)=O)C(=O)N[C@@H](CCC(N)=O)C(=O)N[C@@H](CC(=O)O)C(=O)N[C@@H](Cc1ccccc1)C(=O)N[C@H](C(=O)N[C@@H](CC(N)=O)C(=O)N[C@@H](Cc1c[nH]c2ccccc12)C(=O)N[C@@H](CC(C)C)C(=O)N[C@@H](CC(C)C)C(=O)N[C@@H](CCCCNC(=O)CCCCCCCCCCCCCCC(=O)O)C(=O)N[C@@H](CCC(N)=O)C(=O)N[C@@H](CCCCN)C(N)=O)C(C)C)[C@@H](C)CC) [AT188 [hGIP(5-30)NH2[A28K]-C16diacid/28]],–,–,–,–,0.462,0.144,6.8,0.186,-6.73 log(M),3.2
TFISDYSIAMDKIHQQDFVNWLLAK(C16 diacid)K-NH2 (N-terminus assumed; SMILES CC[C@H](C)[C@H](NC(=O)[C@H](CO)NC(=O)[C@H](Cc1ccc(O)cc1)NC(=O)[C@H](CC(=O)O)NC(=O)[C@H](CO)NC(=O)[C@@H](NC(=O)[C@H](Cc1ccccc1)NC(=O)[C@@H](N)[C@@H](C)O)[C@@H](C)CC)C(=O)N[C@@H](C)C(=O)N[C@@H](CCSC)C(=O)N[C@@H](CC(=O)O)C(=O)N[C@@H](CCCCN)C(=O)N[C@H](C(=O)N[C@@H](Cc1c[nH]cn1)C(=O)N[C@@H](CCC(N)=O)C(=O)N[C@@H](CCC(N)=O)C(=O)N[C@@H](CC(=O)O)C(=O)N[C@@H](Cc1ccccc1)C(=O)N[C@H](C(=O)N[C@@H](CC(N)=O)C(=O)N[C@@H](Cc1c[nH]c2ccccc12)C(=O)N[C@@H](CC(C)C)C(=O)N[C@@H](CC(C)C)C(=O)N[C@@H](C)C(=O)N[C@@H](CCCCNC(=O)CCCCCCCCCCCCCCC(=O)O)C(=O)N[C@@H](CCCCN)C(N)=O)C(C)C)[C@@H](C)CC) [AT189 [hGIP(5-30)NH2[Q29K]-C16diacid/29]],–,–,–,–,0.276,0.0855,3,0.0832,-7.08 log(M),3.2
EGTFISDYSIAMDK(Lauroyl)IHQQDFVNWLLAQK-NH2 [AT102 [hGIP(3-30)NH2-C12/16]],0.0591,6.1,–,–,–,–,–,–,–,–
Palmitoyl-EGTFISDYSIAMDKIHQQDFVNWLLAQK-NH2 [AT104 [hGIP(3-30)NH2-C16/3]],0.075,4.9,–,–,–,–,–,–,–,–
{C16 diacid}-TFISDYSIAMDKIHQQDFVNWLLAQK-NH2 (SMILES CC[C@H](C)[C@H](NC(=O)[C@H](CO)NC(=O)[C@H](Cc1ccc(O)cc1)NC(=O)[C@H](CC(=O)O)NC(=O)[C@H](CO)NC(=O)[C@@H](NC(=O)[C@H](Cc1ccccc1)NC(=O)[C@@H](NC(=O)CCCCCCCCCCCCCCC(=O)O)[C@@H](C)O)[C@@H](C)CC)C(=O)N[C@@H](C)C(=O)N[C@@H](CCSC)C(=O)N[C@@H](CC(=O)O)C(=O)N[C@@H](CCCCN)C(=O)N[C@H](C(=O)N[C@@H](Cc1c[nH]cn1)C(=O)N[C@@H](CCC(N)=O)C(=O)N[C@@H](CCC(N)=O)C(=O)N[C@@H](CC(=O)O)C(=O)N[C@@H](Cc1ccccc1)C(=O)N[C@H](C(=O)N[C@@H](CC(N)=O)C(=O)N[C@@H](Cc1c[nH]c2ccccc12)C(=O)N[C@@H](CC(C)C)C(=O)N[C@@H](CC(C)C)C(=O)N[C@@H](C)C(=O)N[C@@H](CCC(N)=O)C(=O)N[C@@H](CCCCN)C(N)=O)C(C)C)[C@@H](C)CC) [AT137 [hGIP(5-30)NH2-C16diacid/5]],–,–,–,–,0.117,0.0593,3.7,0.102,-6.99 log(M),2
Stearoyl-EGTFISDYSIAMDKIHQQDFVNWLLAQK-NH2 [AT113 [hGIP(3-30)NH2-C18/3]],41.4,16400,–,–,–,–,–,–,–,–
"TFISDYSIAMDK(C16 diacid)IHQQDFVNWLLAQK-NH2 (N-terminus assumed; SMILES CC[C@H](C)[C@H](NC(=O)[C@H](CO)NC(=O)[C@H](Cc1ccc(O)cc1)NC(=O)[C@H](CC(=O)O)NC(=O)[C@H](CO)NC(=O)[C@@H](NC(=O)[C@H](Cc1ccccc1)NC(=O)[C@@H](N)[C@@H](C)O)[C@@H](C)CC)C(=O)N[C@@H](C)C(=O)N[C@@H](CCSC)C(=O)N[C@@H](CC(=O)O)C(=O)N[C@@H](CCCCNC(=O)CCCCCCCCCCCCCCC(=O)O)C(=O)N[C@H](C(=O)N[C@@H](Cc1c[nH]cn1)C(=O)N[C@@H](CCC(N)=O)C(=O)N[C@@H](CCC(N)=O)C(=O)N[C@@H](CC(=O)O)C(=O)N[C@@H](Cc1ccccc1)C(=O)N[C@H](C(=O)N[C@@H](CC(N)=O)C(=O)N[C@@H](Cc1c[nH]c2ccccc12)C(=O)N[C@@H](CC(C)C)C(=O)N[C@@H](CC(C)C)C(=O)N[C@@H](C)C(=O)N[C@@H](CCC(N)=O)C(=O)N[C@@H](CCCCN)C(N)=O)C(C)C)[C@@H](C)CC, also called AT140 [hGIP(5-30)-C16-diacid/16]) [AT140 [hGIP(5-30)NH2-C16diacid/16]]",–,–,–,–,3.28,2.16,7.4,0.204,-6.69 log(M),1.5
